Results: the supplement of paper PMC7125110
± gives the standard error. Variants at the floor of the assay were thinned out.

B1: glmS ribozyme (parent)
chain: AUAAAAGCGCCAGAACUACAGAAAUGUAGUUGACGAGGAGGAGGUUUAUCGAAUUUUCGGCGGAUGCCUCCAAA

Key:
Details in all cases: with glucosamine-6-phosphate
glucosamine-6-phosphate [1] = variants of: B1; experiment: self-cleavage kobs at 40 uM GlcN6P; higher = faster cleavage; RNA array
Procedure, shortened: (§1)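 Over ~14 h at 37 °C, tiles were imaged as glucosamine-6-phosphate (40 μM to 10 mM) in HEPES/KCl/Mg(OAc)2 buffer flowed across sequenced MiSeq chips. The chips carried barcoded ribozyme variants transcribed in situ by E. coli RNA polymerase and tracked with a hybridised Cy3 probe. After normalisation to baseline and to non-cleaving reference variants, one- or two-exponential decay fits of per-tile medians gave kobs. kcat and KM followed from weighted Michaelis–Menten fits across concentrations.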

glucosamine-6-phosphate [2] = variants of: B1; experiment: self-cleavage kobs at 160 uM GlcN6P; higher = faster cleavage; RNA array
Procedure, shortened: as §1

glucosamine-6-phosphate [3] = variants of: B1; experiment: self-cleavage kobs at 640 uM GlcN6P; higher = faster cleavage; RNA array
Procedure, shortened: as §1

glucosamine-6-phosphate [4] = variants of: B1; experiment: self-cleavage kobs at 2500 uM GlcN6P; higher = faster cleavage; RNA array
Procedure, shortened: as §1

glucosamine-6-phosphate [5] = variants of: B1; experiment: self-cleavage kobs at 10000 uM GlcN6P; higher = faster cleavage; RNA array
Procedure, shortened: as §1

Variant | self-cleavage kobs at 40 uM GlcN6P (glucosamine-6-phosphate [1]) | self-cleavage kobs at 160 uM GlcN6P (glucosamine-6-phosphate [2]) | self-cleavage kobs at 640 uM GlcN6P (glucosamine-6-phosphate [3]) | self-cleavage kobs at 2500 uM GlcN6P (glucosamine-6-phosphate [4]) | self-cleavage kobs at 10000 uM GlcN6P (glucosamine-6-phosphate [5])
C8A U49G | < 1e-05 s⁻¹ | < 1e-05 s⁻¹ | < 1e-05 s⁻¹ | < 1e-05 s⁻¹ | < 1e-05 s⁻¹
A6C A52U C70U | < 1e-05 s⁻¹ | – | < 1e-05 s⁻¹ | – | –
C16G G35C A36U A42U C50U | < 1e-05 s⁻¹ | – | – | – | < 1e-05 s⁻¹
A15U G35U | < 1e-05 s⁻¹ | < 1e-05 s⁻¹ | < 1e-05 s⁻¹ | < 1e-05 s⁻¹ | < 1e-05 s⁻¹
G9U C34G G40C A48U C61U | – | < 1e-05 s⁻¹ | – | – | –
A14U C34A G35C U45A C67U | < 1e-05 s⁻¹ | – | – | – | –
G43A G51C G63A C68U | < 1e-05 s⁻¹ | – | – | – | –
C10U A33C | < 1e-05 s⁻¹ | < 1e-05 s⁻¹ | < 1e-05 s⁻¹ | < 1e-05 s⁻¹ | –
G38U A53G | < 1e-05 s⁻¹ | < 1e-05 s⁻¹ | < 1e-05 s⁻¹ | – | –
G7A A12C G51C A53G G66A | < 1e-05 s⁻¹ | – | – | – | –
C8A C50A | < 1e-05 s⁻¹ | < 1e-05 s⁻¹ | < 1e-05 s⁻¹ | < 1e-05 s⁻¹ | < 1e-05 s⁻¹
U56C C61U C71U | < 1e-05 s⁻¹ | – | – | – | –
G7U U69G | 0.000114 ± 2.1e-05 s⁻¹ | – | 0.000299 ± 7e-05 s⁻¹ | 6.87e-05 ± 1.8e-05 s⁻¹ | 0.000226 ± 8.9e-05 s⁻¹
G9A C11G G35U G37U C61U | < 1e-05 s⁻¹ | – | – | < 1e-05 s⁻¹ | –
A6C C10U A33G G41U U47G U55C | < 1e-05 s⁻¹ | – | < 1e-05 s⁻¹ | – | < 1e-05 s⁻¹
G13C A36G | < 1e-05 s⁻¹ | < 1e-05 s⁻¹ | – | – | < 1e-05 s⁻¹
C68G C71G | 2.7e-05 ± 1.3e-05 s⁻¹ | 7.77e-05 ± 1.5e-05 s⁻¹ | 8.75e-05 ± 2.3e-05 s⁻¹ | 9.89e-05 ± 1.7e-05 s⁻¹ | –
G38A U47A C71G | < 1e-05 s⁻¹ | – | – | – | < 1e-05 s⁻¹
G9A C10G | < 1e-05 s⁻¹ | < 1e-05 s⁻¹ | – | < 1e-05 s⁻¹ | –
C34A G63A | – | < 1e-05 s⁻¹ | < 1e-05 s⁻¹ | < 1e-05 s⁻¹ | –
G29A U55G G60C | < 1e-05 s⁻¹ | – | – | – | –
U54A C71G | 0.000131 ± 2.1e-05 s⁻¹ | 0.000336 ± 0.00012 s⁻¹ | 0.000507 ± 0.00011 s⁻¹ | 0.000368 ± 0.00016 s⁻¹ | 0.00197 ± 0.00046 s⁻¹
C10A A12G A15G C61A | – | < 1e-05 s⁻¹ | – | – | –
